Among the data in US20200138864A1 (CRAGE MEDICAL, published 2020) are binding result and Kd values, retold here.

By Kd is commonly meant the constant that tells how readily two partners part at equilibrium.

In assay [1] the target is T1, reference peptide RMFS2 complexed with HLA on T2 cells (T2/RMFS2).
T1 construct: whole, on cells
Kind of assay: flow cytometry on T2/RMFS2 cells.

Assay [2] deals with T2, reference peptide RMFS1 complexed with HLA on T2 cells (T2/RMFS1).
T2 construct: whole, on cells
Put plainly: flow cytometry on T2/RMFS1 cells.

Assay [3] deals with T3, RMF/HLA.A0201 complex (WT1 peptide RMF complexed with recombinant HLA.A0201-BSP and human β2m) (human, labeled with a biotinylation kit (BirA) on the BSP).
T3 construct: also called RMF/HLA complex; WT1 peptide (RMF) complexed with HLA; not shown: biotin protein ligase BirA substrate peptide (BSP)
Kind of assay: SPR (Biacore T200), 1:1 Langmuir fit. Background: SPR reads the build-up and loss of mass on a sensor chip optically.

The target of assay [4] is T3, RMF/HLA.A0201 complex (WT1 peptide RMF …). Put plainly: ELISA with 2.5, 0.5 and 0.2 ug/ml RMF/HLA complex, scFv clone. For orientation: ELISA stands for enzyme-linked immunosorbent assay.

B1: antigen binding unit 2 (ABU2) (scFv)
scFv: GVQLVESGAEVKKPGASVKVSCKASGYTFTELSMHWVRQAPGKGLEWMGLVDPEDGETIYAEKFQGRVTITADTSTDTAYMELSSLRSEDTAVYYCATDLAAGTNDYWGKGTLVTVSSGGGGSGGGGSGGGGSQAVVTQEPSVTVSPGGTVTLTCGSDTGAVTSGHYPYWFQQKPGQAPRTLIYDTSNKHSWTPARFSGSLLGGKAALTLSGAQPDDEADYYCLLSYSGEWVFGGGTKVTVL
notes: also called parent ABU2; parental ABU2
As to B1, the binding result in assay [1] and in assay [2] was “no binding” throughout.

B2: ABU2 (ScFv_Fc) (Fc fusion, not shown: a dimerising Fc or GST)
scFv: GVQLVESGAEVKKPGASVKVSCKASGYTFTELSMHWVRQAPGKGLEWMGLVDPEDGETIYAEKFQGRVTITADTSTDTAYMELSSLRSEDTAVYYCATDLAAGTNDYWGKGTLVTVSSGGGGSGGGGSGGGGSQAVVTQEPSVTVSPGGTVTLTCGSDTGAVTSGHYPYWFQQKPGQAPRTLIYDTSNKHSWTPARFSGSLLGGKAALTLSGAQPDDEADYYCLLSYSGEWVFGGGTKVTVL
notes: The format is printed only on the sheet; also called parent ABU2 as scFv-Fc
For B2, the Kd in assay [3] worked out at 1.47 nM.

B3: ABU4 (scFv)
scFv: GVQLVESGAEVKKPGASVKVSCKASGYTFTELSMHWVRQAPGKGLEWMGLVVPADGETIYAEKFQGRVTITADTSTDTAYMELSSLRSEDTAVYYCATDLAAGTNDYWGKGTLVTVSSGGGGSGGGGSGGGGSQAVVTQEPSVTVSPGGTVTLTCGSDTGAVTSGHYPYWFQQKPGQAPRTLIYDTSNKHSWTPARFSGSLLGGKAALTLSGAQPDDEADYYCLLSYSGEWVFGGGTKVTVL
Consider B3, for which, in assay [4], the binding result is given as “binds”.

B4: ABU3 (ScFv_Fc) (Fc fusion, not shown: a dimerising Fc or GST)
scFv: GVQLVESGAEVKKPGASVKVSCKASGYTFTELSMHWVRQAPGKGLEWMGLVDPEDGETIYAEKFQGRVTITADTSTDTAYMELSSLRSEDTAVYYCATDLAAGTNDYWGKGTLVTVSSGGGGSGGGGSGGGGSQAVVTQEPSVTVSPGGTVTLTCGSDSGPVTRGHYPYWFQQKPGQAPRTLIDDTSRKHSWTPARFSGSLLGGKAALTLSGAQPDDEADYYCLLSYSGEWVFGGGTKVTVL
notes: The format is printed only on the sheet
For the molecule B4, the equilibrium dissociation constant (Kd) in assay [3] was 0.0467 nM.

B5: ABU5 (scFv)
scFv: GVQLVESGAEVKKPGASVKVSCKASGYTFTELSMHWVRQAPGKGLEWMGLVVPDDGETIYAEKFQGRVTITADTSTDTAYMELSSLRSEDTAVYYCATDLAAGTNDYWGKGTLVTVSSGGGGSGGGGSGGGGSQAVVTQEPSVTVSPGGTVTLTCGSDTGAVTSGHYPYWFQQKPGQAPRTLIYDTSNKHSWTPARFSGSLLGGKAALTLSGAQPDDEADYYCLLSYSGEWVFGGGTKVTVL
In the case of B5, in assay [4], the binding result is on record as “binds”.
